Data from patent US20210052649A1 (FRED HUTCHINSON CANCER RESEARCH CENTER, published 2021).

Molecular target: T1, ROR1-protein (human, UniProt Q01973 30-403, limits assumed)
T1 construct: also called orphan tyrosine kinase receptor ROR1
Test: assay not described; monovalent binding affinity for ROR1 compared with mAb 2A2

T1 sequence (Q01973 30-403 limits assumed): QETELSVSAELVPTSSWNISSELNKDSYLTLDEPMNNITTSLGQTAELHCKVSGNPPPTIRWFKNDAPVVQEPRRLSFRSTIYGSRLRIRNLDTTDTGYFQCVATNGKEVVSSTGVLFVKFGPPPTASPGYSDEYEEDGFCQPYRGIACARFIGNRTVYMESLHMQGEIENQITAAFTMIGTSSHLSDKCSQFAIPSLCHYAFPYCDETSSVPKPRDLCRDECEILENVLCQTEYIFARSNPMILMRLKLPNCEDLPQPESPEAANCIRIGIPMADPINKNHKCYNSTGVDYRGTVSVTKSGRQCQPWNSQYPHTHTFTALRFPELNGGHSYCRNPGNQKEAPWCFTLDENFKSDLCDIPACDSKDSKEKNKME

fold higher monovalent binding affinity than 2A2: > 50 fold
B1: anti-ROR1 monoclonal antibody R12 (antibody, V domains shown)
VH: QEQLVESGGRLVTPGGSLTLSCKASGFDFSAYYMSWVRQAPGKGLEWIATIYPSSGKTYYATWVNGRFTISSDNAQNTVDLQMNSLTAADRATYFCARDSYADDGALFNIWGPGTLVTISS
VL: ELVLTQSPSVSAALGSPAKITCTLSSAHKTDTIDWYQQLQGEAPRYLMQVQSDGSYTKRPGVPDRFSGSSSGADRYLIIPSVQADDEADYYCGADYIGGYVFGGGTQLTVTG
notes: also called mAb R12; R12 mAb
